Results: paper PMC7530648 (2020)
No end group written: not given here.

Target: T1, S8-meSRK (S8-SRK ectodomain containing 11 mutations), purified, tags removed (Brassica rapa, three sugar chains (seen in the crystal structure))
T1 chain: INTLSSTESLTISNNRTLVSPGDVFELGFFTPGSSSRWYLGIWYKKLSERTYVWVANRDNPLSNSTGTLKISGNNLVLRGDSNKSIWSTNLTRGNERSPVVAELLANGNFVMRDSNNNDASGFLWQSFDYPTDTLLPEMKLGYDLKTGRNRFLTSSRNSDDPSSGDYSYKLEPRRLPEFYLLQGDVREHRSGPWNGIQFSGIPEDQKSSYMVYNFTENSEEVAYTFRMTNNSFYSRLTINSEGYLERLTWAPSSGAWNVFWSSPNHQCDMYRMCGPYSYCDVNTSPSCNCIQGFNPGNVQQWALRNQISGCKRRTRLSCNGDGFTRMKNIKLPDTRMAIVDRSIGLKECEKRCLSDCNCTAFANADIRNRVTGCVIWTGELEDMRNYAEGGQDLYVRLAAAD
Test: ITC

Kd: 20.2 nM
B1: biotin-S8-SP11, chemically synthesized (ligand)
chain: NLMKRCTRGFRKLGKCTTLEEEKCKTLYPRGQCTCSDSKMNTHSCDCKSC
modifications: not fully specified; cysteine pairing not given here; also: biotin-S8 (position not given here)
